This is an account of results in paper PMC2789664.

One series concerns the target GAPDH D32A (Homo sapiens, UniProt P04406 1-335, D35A). The experiment in a line: EMSA.
Another series deals with GAPDH C149A (Homo sapiens, UniProt P04406 1-335, C152A). The series can be described thus: EMSA.
Chain of GAPDH C149A (P04406 whole entry C152A): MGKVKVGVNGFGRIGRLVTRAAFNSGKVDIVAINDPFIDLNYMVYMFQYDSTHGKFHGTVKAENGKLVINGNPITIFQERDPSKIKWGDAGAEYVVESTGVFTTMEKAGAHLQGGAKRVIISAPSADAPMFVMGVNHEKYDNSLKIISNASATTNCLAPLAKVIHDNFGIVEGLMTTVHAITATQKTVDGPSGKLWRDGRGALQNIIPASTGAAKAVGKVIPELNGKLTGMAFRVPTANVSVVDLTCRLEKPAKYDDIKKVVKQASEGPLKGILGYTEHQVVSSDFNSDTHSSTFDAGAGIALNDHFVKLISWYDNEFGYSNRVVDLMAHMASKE

Chain of GAPDH D32A (P04406 whole entry D35A): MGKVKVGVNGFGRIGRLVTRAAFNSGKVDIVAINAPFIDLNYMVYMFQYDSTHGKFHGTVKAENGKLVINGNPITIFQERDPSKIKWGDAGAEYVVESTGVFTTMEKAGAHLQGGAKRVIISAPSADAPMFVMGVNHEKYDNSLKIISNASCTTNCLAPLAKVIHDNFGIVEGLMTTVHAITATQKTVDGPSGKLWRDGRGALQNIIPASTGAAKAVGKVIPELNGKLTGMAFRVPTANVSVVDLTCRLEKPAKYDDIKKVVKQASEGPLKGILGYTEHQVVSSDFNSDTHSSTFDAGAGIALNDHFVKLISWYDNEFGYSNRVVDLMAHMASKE

Regarding AGGGTTAGGGTTAGGGTT (ssDNA) [ss-(AGGGTT)3], the binding result in the series with GAPDH D32A and with GAPDH C149A was “no binding” each time.
